The values that follow come from patent US20190202925A1 (OPI VI IP HOLDCO, published 2019).

By IC50 is commonly meant the point on the concentration scale where inhibition reaches its midpoint. The low end stands for greater potency in that assay, the high end for weaker potency in that assay. The Kd is the constant that tells how readily two partners part at equilibrium. Low readings indicate higher affinity, high ones lower affinity.

Substitutions are numbered along the chain they refer to. Like-named read-outs stand apart in the source and are kept apart here.

For test [1], the target named is T1, soluble human TNFR2 (human, UniProt P20333 23-257).
T1 construct: also called soluble TNFR2
T1 sequence (looked up): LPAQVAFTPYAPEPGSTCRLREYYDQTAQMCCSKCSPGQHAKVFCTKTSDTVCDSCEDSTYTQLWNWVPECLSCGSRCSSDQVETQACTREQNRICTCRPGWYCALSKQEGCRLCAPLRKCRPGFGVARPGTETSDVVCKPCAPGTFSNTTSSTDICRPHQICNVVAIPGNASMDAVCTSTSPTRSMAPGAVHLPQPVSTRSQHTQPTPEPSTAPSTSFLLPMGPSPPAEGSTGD
Description: competition ELISA (FIG. 2), plate-bound soluble human TNFR2, constant biotinylated TNFα as competitor; unit from paragraph 202 (IC50 values are reported in nM). The text has this:
(§1) Soluble human TNFR2 was coated on Nunc-Immuno™ plates. […] IC₅₀ values are reported in nM.

Test [2] has as its target T1, soluble human TNFR2. The experiment in a line: competition ELISA (FIG. 1), plate-bound soluble human TNFR2, constant biotinylated TNFα as competitor.
Source text: as §1
On the technique in general: An ELISA detects its analyte on a solid surface through an enzyme-linked reagent.

In test [3] the target is T2, monomeric human TNFR2 extracellular domain (human, UniProt P20333 23-257).
T2 construct: extracellular domain; Analyte in the Octet experiments; also called human TNFR2 ECD
T2 sequence (looked up): T1 sequence (looked up)
The experiment in a line: BLI (Octet Red 96), antibody captured on Fc biosensor, monomeric TNFR2 ECD in solution, 1:1 model. Here is the method:
(§2) Analysis of binding to the human and cynomolgus TNFR2 ECD was performed using an Octet Red 96 Instrument™ (ForteBio). […] The experiments were performed using five steps: (1) baseline acquisition (60 s); (2) antibody loading on to anti-human or anti-mouse Fc biosensors (120 s); (3) second baseline acquisition (60 s); (4) association of interacting monomeric human or cynomolgus TNFR2 ECD protein for kₒₙ measurement (120 s); and (5) dissociation of interacting monomeric human or cynomolgus TNFR2 ECD for koff measurement (240-3600 s).
(§3) The interacting monomeric human or cynomolgus ECD was used at 5-6 concentrations of a 3-fold concentration series. The data were analyzed using Octet Data Analysis Software 9.0™ (ForteBio) and fit to the 1:1 binding model. The equilibrium dissociation constants (Kd) were calculated by the ratio of […].
A general note: In BLI a coated tip is dipped into the sample, and binding shifts an interference pattern.

Test [4] deals with T2, monomeric human TNFR2 extracellular …. The experiment in a line: BLI (Octet Red 96), Human TNFR2 Kd (1-1).
For test [5], the target named is T1, soluble human TNFR2. The experiment in a line: competition ELISA: plate-bound soluble human TNFR2, competitor biotinylated TNFα; IC50 relative to unlabelled TNFα = 1.00. Here is the method: (§4) Soluble human TNFR2 (Sino Biological, 10417-H08H) or cynomolgus TNFR2 (Sino Biological, 90102-C08H) was coated on Nunc-Immuno™ plates at 0.1 μg/ml, 0.5 ug/ml, 1 μg/ml, and 5 μg/ml. […] Plates were developed using TMB and stopped with 3 M HCl.

Test [6] addresses T1, soluble human TNFR2. The experiment in a line: competition ELISA: plate-bound soluble human TNFR2, competitor biotinylated TNFα, streptavidin-HRP, A450. The procedure:
as §4

Test [7] has as its target T1, soluble human TNFR2. Description: competition ELISA: plate-bound soluble human TNFR2, competitor biotinylated TNFα; IC50 relative to unlabelled TNFα = 1.00. The procedure: as §4
(§5) IC₅₀ values are reported in nM.
This is another data set of the same source.

For test [8], the target named is T3, soluble cynomolgus TNFR2 (cynomolgus, UniProt A0A2K5VET2 132-366).
T3 sequence: T1 sequence (looked up) with S16G, S36P, P117Q, N164H, E210A, S216G, M223V
The experiment in a line: competition ELISA: plate-bound soluble cynomolgus TNFR2, competitor biotinylated TNFα; IC50 relative to unlabelled TNFα = 1.00. The procedure:
as §4, §5

Test [9] deals with T3, soluble cynomolgus TNFR2. The experiment in a line: competition ELISA, plate-bound soluble cynomolgus TNFR2, biotinylated TNFα as competitor. The procedure:
as §4, §5

The target of test [10] is T3, soluble cynomolgus TNFR2. The experiment in a line: competition ELISA: plate-bound soluble cynomolgus TNFR2, competitor biotinylated TNFα; IC50 relative to unlabelled TNFα = 1.00. The procedure:
as §4
The source holds these as a separate data set.

Test [11] addresses T3, soluble cynomolgus TNFR2. The experiment in a line: competition ELISA: plate-bound soluble cynomolgus TNFR2, competitor biotinylated TNFα, streptavidin-HRP, A450. The procedure: as §4
In test [12] the target is T1, soluble human TNFR2. The experiment in a line: competition ELISA, plate-bound soluble human TNFR2, biotinylated TNFα as competitor. Here is the method:
as §4, §5

Test [13] concerns the target T1, soluble human TNFR2. Description: competition ELISA: plate-bound soluble human TNFR2, competitor biotinylated TNFα, streptavidin-HRP, A450. The procedure: as §4
The source holds these as a separate data set.

The target in test [14] is T3, soluble cynomolgus TNFR2. The experiment in a line: competition ELISA: plate-bound soluble cynomolgus TNFR2, competitor biotinylated TNFα, streptavidin-HRP, A450. Here is the method:
as §4
This is another data set of the same source.

The target in test [15] is T4, monomeric cynomolgus TNFR2 extracellular domain (cynomolgus monkey, UniProt A0A2K5VET2 132-366).
T4 construct: extracellular domain; Analyte in the Octet experiments; also called cynomolgus TNFR2 ECD; Cyno TNFR2
T4 sequence: T1 sequence (looked up) with S16G, S36P, P117Q, N164H, E210A, S216G, M223V
The experiment in a line: BLI (Octet Red 96), antibody captured on Fc biosensor, monomeric TNFR2 ECD in solution, 1:1 model. The procedure:
as §2, §3

In test [16] the target is T1, soluble human TNFR2. The experiment in a line: competition ELISA (FIG. 2), plate-bound soluble human TNFR2, constant biotinylated TNFα as competitor.
Source text: as §1

B1: SBT-004 (antibody, V domains shown)
VH: EVQLQQSGPEVGRPGSSVKISCKASGYTFTDYIMHWVKQSPGQGLEWIGWVDPEYGSTDYAEKFKKKATLTADTSSNTAYIQLSSLTSEDTATYFCARDDGSYSPFDYWGQGVMVTVSS
VL: DIQMTQSPPSLSASLGDKVTITCQASQNINKYIAWYQQKPGKAPRLLIRYTSTLESGTPSRFSGSGSGRDYSFSISNVESEDIASYYCLQYVNLLTFGAGTKLEIK
notes: Parental rat antibody; also called rat SBT-004
Take B1: the half-inhibitory concentration (IC50) with soluble human TNFR2 [1] was 6.59 nM; with soluble human TNFR2 [2] it was 7.88 nM. The dissociation constant (Kd) amounted to 1.8 nM in [3] and 1.1 nM in [4].

B2: SBT-002 (antibody, V domains shown)
VH: QVTLKESGPGILQPSQTLSLTCSFSGFSLSTSGMGVGWIRQPSGKGLEWLAHIWWDDDKFYNPSLKSQLTISKDTSRNQVFLKLTSVVTADTATYYCARLTGTRYFDYWGQGTTLTVSS
VL: DVQMTQSPSSLSASLGGKVTITCKASQDINKFIAWYQHKPGKGPRLLIHYTSTLQPGIPSKFSGSGSGRDYSFSISNLEPEDIATYYCLQYGNLWTFGGGTKLEIT
notes: Parental mouse antibody; also called mouse SBT-002
Take B2: the “Relative IC50” value with soluble human TNFR2 [5] is 2.33 nM; in the test with soluble human TNFR2 [7] it was 2.17 nM; in the test with soluble cynomolgus TNFR2 [8] it was 2.04 nM; in the test with soluble cynomolgus TNFR2 [10] it was 2.13 nM. For the same molecule, the IC50 with soluble human TNFR2 [6] amounted to 5.77 nM; with soluble human TNFR2 [2] it was 5.12 nM; with soluble cynomolgus TNFR2 [11] it was 19.6 nM; in the test with soluble human TNFR2 [13], 12.1 nM; with soluble cynomolgus TNFR2 [14], 8 nM; in the test with soluble human TNFR2 [16], 5.08 nM. The “Average Relative IC50” value was determined as 1.98 in the test with soluble cynomolgus TNFR2 [9] and 2.19 nM with soluble human TNFR2 [12]. In addition, the figures for the Kd in test [15], in [3] and in test [4] were 0.44 nM, 1.3 nM and 1.3 nM, respectively.
